# T1: Flag/6xhis-CALRdel52 (CALRW12.007) (human, UniProt P27797 18-417)
# T1 construct: also called human CALRdel52
# T1 sequence (looked up): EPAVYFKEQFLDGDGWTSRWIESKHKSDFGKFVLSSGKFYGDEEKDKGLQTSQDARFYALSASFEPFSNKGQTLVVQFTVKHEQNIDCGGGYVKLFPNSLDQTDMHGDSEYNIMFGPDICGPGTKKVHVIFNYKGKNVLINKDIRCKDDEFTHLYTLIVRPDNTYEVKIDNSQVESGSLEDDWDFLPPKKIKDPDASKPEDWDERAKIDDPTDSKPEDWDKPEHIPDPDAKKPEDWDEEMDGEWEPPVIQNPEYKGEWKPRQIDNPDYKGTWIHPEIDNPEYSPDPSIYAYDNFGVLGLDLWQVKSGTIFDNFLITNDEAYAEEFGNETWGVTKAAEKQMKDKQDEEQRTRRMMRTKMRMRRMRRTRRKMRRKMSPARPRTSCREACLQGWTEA
# T2: Avi/his-CalR-Ins5 (CALRW28.004) (human, UniProt P27797 18-417, limits assumed)
# T2 construct: also called human CALRins5
# T2 sequence (looked up): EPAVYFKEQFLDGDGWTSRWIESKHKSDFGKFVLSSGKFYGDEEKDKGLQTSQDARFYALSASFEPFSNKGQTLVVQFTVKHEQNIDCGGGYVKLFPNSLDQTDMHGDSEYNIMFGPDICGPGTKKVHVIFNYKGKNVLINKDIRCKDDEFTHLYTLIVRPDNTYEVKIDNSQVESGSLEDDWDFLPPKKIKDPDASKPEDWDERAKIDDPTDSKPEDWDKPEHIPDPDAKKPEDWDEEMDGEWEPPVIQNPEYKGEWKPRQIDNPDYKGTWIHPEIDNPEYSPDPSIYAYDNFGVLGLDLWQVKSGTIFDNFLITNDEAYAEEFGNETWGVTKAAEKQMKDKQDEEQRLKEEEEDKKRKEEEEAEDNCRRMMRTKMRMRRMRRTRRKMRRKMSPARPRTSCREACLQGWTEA
# T3: wild-type CALR (CALRW14.001) (UniProt P27797 18-417, limits assumed)
# T3 sequence (looked up): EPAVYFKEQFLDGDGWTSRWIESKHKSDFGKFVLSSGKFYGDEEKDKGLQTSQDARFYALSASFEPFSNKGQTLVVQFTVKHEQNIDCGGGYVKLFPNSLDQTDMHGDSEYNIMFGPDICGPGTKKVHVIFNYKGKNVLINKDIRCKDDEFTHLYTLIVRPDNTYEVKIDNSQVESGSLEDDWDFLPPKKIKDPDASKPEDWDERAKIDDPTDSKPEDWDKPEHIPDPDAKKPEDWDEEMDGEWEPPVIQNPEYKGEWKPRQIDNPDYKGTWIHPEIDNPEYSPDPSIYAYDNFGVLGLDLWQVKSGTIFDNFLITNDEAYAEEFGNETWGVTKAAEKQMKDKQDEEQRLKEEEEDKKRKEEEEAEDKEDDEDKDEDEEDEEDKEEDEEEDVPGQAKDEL
# T4: CALRdel52 (mutant calreticulin, 52 base pair deletion, Type 1) expressed with MPL on engineered cancer cells (UniProt P27797 18-417)
# T4 sequence (looked up): T1 sequence (looked up)
# T5: CALRins5 (mutant calreticulin, 5 base pair insertion, Type 2) expressed with MPL on engineered cancer cells (UniProt P27797 18-417)
# T5 sequence (looked up): T2 sequence (looked up)
# B1: C3CRB73 CALRmut x CD3 bispecific antibody (bispecific antibody, human IgG1, kappa, L234A L235A)
# heavy: EVQLLESGGGLVQPGGSLRLSCAVSGIDLSNNAISWVRQAPGKGLEYVGVIGNTGDTYYADSAKGRFTISRDSSKTTLYLQMNSLRAEDTAVYFCVRGPPSYSSSVKNIWGQGTLVTVSSASTKGPSVFPLAPSSKSTSGGTAALGCLVKDYFPEPVTVSWNSGALTSGVHTFPAVLQSSGLYSLSSVVTVPSSSLGTQTYICNVNHKPSNTKVDKKVEPKSCDKTHTCPPCPAPEAAGGPSVFLFPPKPKDTLMISRTPEVTCVVVSVSHEDPEVKFNWYVDGVEVHNAKTKPREEQYNSTYRVVSVLTVLHQDWLNGKEYKCKVSNKALPAPIEKTISKAKGQPREPQVYTLPPSREEMTKNQVSLSCAVKGFYPSDIAVEWESNGQPENNYKTTPPVLDSDGSFFLVSKLTVDKSRWQQGNVFSCSVMHEALHNRFTQKSLSLSPGK
# light: DIQMTQSPSSVSASVGDRVTITCQSSQSVYNNNWLSWLQQKPGKAPKRLIYDASKLESGVPSRFSGSGSGTDFTLTISSVQPEDAATYYCAGGFTGNVYTFGGGTKVEIKRTVAAPSVFIFPPSDEQLKSGTASVVCLLNNFYPREAKVQWKVDNALQSGNSQESVTEQDSKDSTYSLSSTLTLSKADYEKHKVYACEVTHQGLSSPVTKSFNRGEC
# scFv: DIQMTQSPSSLSASVGDRVTITCRARQSIGTAIHWYQQKPGCAPKLLIKYASESISGVPSRFSGSGSGTDFTLTISSLQPEDFATYYCQQSGSWPYTFGQGTKLEIKGGGSGGSGGCPPCGGSGGEVQLVESGGGLVKPGGSLRLSCAASGFTFSRYNMNWVRQAPGKGLEWVSSISTSSNYIYYADSVKGRFTFSRDNAKNSLDLQMSGLRAEDTAIYYCTRGWGPFDYWGCGTLVTVSSEPKSSDKTHTCPPCPAPEAAGGPSVFLFPPKPKDTLMISRTPEVTCVVVSVSHEDPEVKFNWYVDGVEVHNAKTKPREEQYNSTYRVVSVLTVLHQDWLNGKEYKCKVSNKALPAPIEKTISKAKGQPREPQVYTLPPSREEMTKNQVSLWCLVKGFYPSDIAVEWESNGQPENNYKTTPPVLDSDGSFFLYSKLTVDKSRWQQGNVFSCSVMHEALHNHYTQKSLSLSPGK
# notes: IgG1-AAS; also called JNJ-88549968; CALRB421 Fab x CD3 spFv
# Legend:
# [1] = target: T1, Flag/6xhis-CALRdel52 (CALRW12.007); experiment: SPR, forced degradation: Physiological
# [2] = target: T2, Avi/his-CalR-Ins5 (CALRW28.004); experiment: SPR, forced degradation: Physiological
# [3] = target: T6, CD3EG-HSA-6xHis (CD3W220.002) (human, UniProt P07766 22-118; P09693 23-103); experiment: SPR, forced degradation: Physiological
# T6 construct: also called human CD3; not shown: human serum albumin (HSA); 6xHis tag
# T6 sequence (P07766 other isoform, or with tags, fused parts or gaps): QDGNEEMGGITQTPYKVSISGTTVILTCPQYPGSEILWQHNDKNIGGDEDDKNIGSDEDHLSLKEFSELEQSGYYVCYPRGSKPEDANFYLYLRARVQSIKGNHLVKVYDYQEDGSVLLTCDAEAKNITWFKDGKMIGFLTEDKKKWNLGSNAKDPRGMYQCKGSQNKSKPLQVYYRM
# [4] = target: T1, Flag/6xhis-CALRdel52 (CALRW12.007); experiment: SPR
# [5] = target: T3, wild-type CALR (CALRW14.001); experiment: SPR
# [6] = target: T2, Avi/his-CalR-Ins5 (CALRW28.004); experiment: SPR
# [7] = target: T6, CD3EG-HSA-6xHis (CD3W220.002); experiment: SPR
# [8] = target: T4, CALRdel52 (mutant calreticulin, 52 base …); experiment: cell-based or functional assay
# [9] = target: T5, CALRins5 (mutant calreticulin, 5 base …); experiment: cell-based or functional assay
# [10] = target: T1, Flag/6xhis-CALRdel52 (CALRW12.007); experiment: SPR, forced degradation: pH 5.0
# [11] = target: T2, Avi/his-CalR-Ins5 (CALRW28.004); experiment: SPR, forced degradation: pH 5.0
# [12] = target: T6, CD3EG-HSA-6xHis (CD3W220.002); experiment: SPR, forced degradation: pH 5.0
# [13] = target: T5, CALRins5 (mutant calreticulin, 5 base …); experiment: flow cytometry on ELF-153 MPL CALRins5 cells, 1 h at 37 C, AF647 secondary antibody, Geometric Mean
# Description: FIGS. 21A-21F depict binding of different CALRmutxCD3 bispecific antibodies to CALRmut-negative or CALRmut-positive cells. Flow cytometry was used to evaluate CALRmutxCD3 binding to CALRmut-negative and CALRmut-positive cancer cells in vitro. CALRmutxCD3 antibodies were tested on a panel of cell lines, engineered to express MPL and CALRmut, after 1 hour 37° C. incubation, with subsequent incubation with secondary AF647-labeled antibody. Geometric mean fluorescence intensity of AF647 was measured to determine antibody binding.
binder,measurement,setting,value
B1,% Active,[1],98%
same,Kd,[1],0.0171 nM
same,% Active,[2],99%
same,Kd,[2],0.0622 nM
same,% Active,[3],96%
same,Kd,[3],0.301 nM
same,Kd,[4],0.0602 nM
same,binding result,[5],no binding (tested: 300 nM)
same,Kd,[6],0.0331 nM
same,Kd,[7],0.214 nM
same,"% CD25+ CD8 T cells EC50 (nM), CALRmut patient blood, ELF-153 MPL CALRdel52",[8],2.46 nM
same,"% CD25+ CD8 T cells EC50 (nM), healthy donor blood, ELF-153 MPL CALRdel52",[8],1 nM
same,"% CD69+ CD8 T cells EC50 (nM), CALRmut patient blood, ELF-153 MPL CALRdel52",[8],3.06 nM
same,"% CD69+ CD8 T cells EC50 (nM), healthy donor blood, ELF-153 MPL CALRdel52",[8],0.88 nM
same,"% CD25+ CD8 T cells EC50 (nM), CALRmut patient blood, ELF-153 MPL CALRins5",[9],1.68 nM
same,"% CD25+ CD8 T cells EC50 (nM), healthy donor blood, ELF-153 MPL CALRins5",[9],0.53 nM
same,"% CD69+ CD8 T cells EC50 (nM), CALRmut patient blood, ELF-153 MPL CALRins5",[9],1.08 nM
same,"% CD69+ CD8 T cells EC50 (nM), healthy donor blood, ELF-153 MPL CALRins5",[9],0.41 nM
same,% Active,[10],103%
same,Kd,[10],0.114 nM
same,% Active,[11],98%
same,Kd,[11],0.0342 nM
same,% Active,[12],100%
same,Kd,[12],0.231 nM
same,EC50 (read off the curve),[13],~2 nM
